The series deals with the molecule itself. Description: crystal structure.

B1: Nmar_1354, multicopper oxidase (MCO4 lineage) from Nitrosopumilus maritimus (enzyme)
chain: DSSDTFPKFKNPNPQTLSYTLIAQDAEIEVSPGVRAKVWTYNGTVPAPTLRFSEGDDVTVKFVNDTPYAHTIHFHGTHDSANDGVFPMIMPGEEYTYHFVAEEAGLFMYHCHAFPTSEHVRMGMFGTMIIDPAIRPMDPAREYFFTLSEFDPNNALEHFTEFYPINGYAGQYMDNPIRVVSGELTRFYVVGIGGVLQSPFHVHSTIMKVYPSGILWNEPYYAQTHLIGNGDTAIIEATWTQPGMYLFHVHGIQEERGSMAMIEVLEDASSLSDVQRPSNNKGSYSMVEWQEDLIRTLEQPQLISYENLGESAAISSEKVSADKVSIVKDSWNPEITESYDPIAIQVDSGTTVTWTNDDSVVHTVTDNENSFDSGFIQAGNTWSYSFDNPGEFDYICTLHPWMKGTISVN
Broadly, the stoichiometry N is a count of units in the complex or per binding partner. B1: the “stoichiometry N” value is 3.

(Values after publication PMC11761707 (Proceedings of the National Academy of Sciences of the …, 2025).)
